Measurements taken from patent publication US20240002535A1 (Merck Sharp & Dohme, published 2024).

Assays:
[1] = biological target: T1, human arginase 1 (hArg1), trimeric (human, UniProt P05089 1-322); experiment: isothermal titration calorimetry: hArg1 trimer (100 µM, syringe) titrated into mAb4 mouse/human chimera (10 µM, cell) at 25 °C
T1 construct: Natural homotrimer; It carries two Mn ions in each active site; also called Human Arg1 trimer; trimeric hArg1
T1 sequence: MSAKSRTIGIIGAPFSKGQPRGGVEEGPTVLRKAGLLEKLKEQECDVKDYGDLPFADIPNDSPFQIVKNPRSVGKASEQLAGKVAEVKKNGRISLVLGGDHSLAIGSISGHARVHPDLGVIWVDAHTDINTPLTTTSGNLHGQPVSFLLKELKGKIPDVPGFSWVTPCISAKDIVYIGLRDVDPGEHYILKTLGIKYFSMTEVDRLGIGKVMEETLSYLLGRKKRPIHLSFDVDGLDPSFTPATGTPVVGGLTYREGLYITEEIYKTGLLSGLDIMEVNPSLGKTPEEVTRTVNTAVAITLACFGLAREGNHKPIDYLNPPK
Experimental: (§1) Isothermal titration calorimetry (ITC) was conducted using a MicroCal PEAQ-ITC Automated (Malvern Inc, Westborough, MA) to determine the stoichiometry and thermodynamics properties of the hArg1:mAb interaction. […] Arginase (100 μM) in the ITC syringe was titrated into the antibody (10 μM) in the ITC cell at 25° C. Reference power was set to 10 μcal/sec with initial delay of 60 seconds and stirring speed of 750 rpm. Injection volume was 0.4 μL for the first injection and 4 μL for subsequent injections. Injection duration was 0.8 seconds for the first injection and 6 seconds for subsequent injections with 150 sec spacing. Baseline was adjusted using buffer-buffer titration. Data analysis was done using MicroCal PEAQ-ITC Analysis Software.

[2] = biological target: T1, human arginase 1 (hArg1), trimeric; experiment: ITC, hArg1 trimer (100 uM, syringe) titrated into the antibody (10 uM, cell) at 25 C
Experimental: as §1

-TΔS [1]: 3 kcal/mol
ΔG [1]: -10.7 kcal/mol
ΔH [1]: -13.7 kcal/mol
stoichiometry n (ITC) [2]: 0.637
B1: mAb4 (mouse/human chimera) (antibody, V domains shown)
VH: EVQLQQSGPVLVKPGASVKMSCKASEYTFTDYYMNWVKQSHGRSLEWIGVISPYNGGTTYNQKFKGKATLTVDKSSSTAYMELNSLTSEDSAVYYCVYDLYYFDYWGQGTTLTVSS
VL: NIVLTQSPATLSVTPGDSVSLSCRASQRISNDLHWYQQKSHESPRLLIKYASQSISGIPSRFSGSGSGTDFTLSINSVETEDFGMYFCQQSNSWPRTFGGGTKLEIK
